The values below come from patent US20240166754A1 (SYNTHEKINE, published 2024).

The labels stand for the following.
B1: hIL12Rb1_VHH21 (VHH)
VHH: QVQLQESGGGSVQAGGSLRLSCTASGYTYSSAFMAWFRQAPGKEREGVAAMYTRDGGTVYADSVKGRFTISQDNAKNTLYLQMNSLKTEDTAMYYCAAKIPQPGRASLLDSQTYDYWGQGTQVTVSS
notes: Camel VHH
B2: hIL12Rb1_VHH6 (VHH)
VHH: QVQLQESGGGSVQAGGSLRLSCAASRYTYTNNFMAWFRQAPGKEREGVAAIYTGDGYAYYFYSVKGRFTISQDNDENMLYLQMNSLKPEDTAMYYCAAMERRIGTRRMTENAEYKYWGQGTQVTVSS
notes: Camel VHH
B3: hIL12Rb1_VHH18 (VHH)
VHH: QVQLQESGGGSVQAGGSLRLSCAASRYTYTNNFMAWFRQAPGKEREGVAAIYTGDGYAYYFDSVKGRFTISQDNDKNMLYLQMNSLKPEDTAMYYCAAMERRSGRRRMTENAEYKYWGQGTQVTVSS
notes: Camel VHH
B4: hIL12Rb1_VHH3 (VHH)
VHH: QVQLQESGGGSVQAGGSLRLSCVASGYSYCGYDMMWYRQAPGKEREFVALITSDYSIRYEDSVEGRFSISRDNAKNTGYLLMSNLTPADTAIYYCKTSTAARESSWCRSRYRVASWGQGTQVTVSS
notes: Camel VHH
B5: hIL12Rb1_VHH8 (VHH)
VHH: QVQLQESGGGSVQAGGSLRLSCVASGYSYCGYDMMWYRQAPGKEREFVALITSDYSIRYEDSVEGRFSISRDNAKNTGYLLMSNLTPADTAIYYCKTSTAARESSWCRSRYRVASWGQGTQVTVSS
notes: Camel VHH
B6: hIL12Rb1_VHH9 (VHH)
VHH: QVQLQESGGGSVQAGGSLRLSCVASGYSYCGYDMMWYRQAPGKEREFVALITSDYSIRYEDSVEGRFSISRDNAKNTGYLLMSNLTPADTAIYYCKTSTAARESGWCRSRYRVASWGQGTQVTVSS
notes: Camel VHH
B7: hIL12Rb1_VHH17 (VHH)
VHH: QVQLQESGGGSVQAGGFLRLSCVASGYGYCGYDMSWYRQVPGKEREFVALITSDRSVSYEDSVKGRFSISRDNAKNTAYLEMNRLTPDDTAIYYCKTSTAARENNWCRSRYRIASWGQGTQVTVSS
notes: Camel VHH
B8: hIL12Rb1_VHH13 (VHH)
VHH: QVQLQESGGGSVQAGGFLRLSCVASGYGYCGYDMSWYRQAPGKEREFVALITSERVISYEDSVKGRFSISRDNAENTGYLEMNRLTPDDTAIYYCKTSAAARESSWCRSRYRVASWGQGTQVTVSS
notes: Camel VHH
B9: hIL12Rb1_VHH4 (VHH)
VHH: QVQLQESGGGSVQAGGSLRLSCVASGYGYCGYDMSWYRQTPGKEREFVALITSDRIASYEDSVKGRFIISRDNAKNTGYLDMTRVTPDDTAIYYCKTSAAARENSWCRSRYRVASWGQGTQVTVSS
notes: Camel VHH
B10: hIL12Rb1_VHH5 (VHH)
VHH: QVQLQESGGGSVQAGGFLRLSCVASGYGYCGYDMSWYRQVPGKEREFVALITSDRSVSYEDSVKGRFSISRDNAKNTAYLEMNRLTPDDTAVYYCKTSTAARENNWCRSRYRIAYWGQGTQVTVSS
notes: Camel VHH

The target of this assay is T1, extracellular domain of human IL12RB1 (hIL12Rb1 ECD antigen) (human, UniProt P42701 24-545).
T1 construct: also called IL12Rβ1; CD212
The assay can be described thus: periplasmic extract ELISA on antigen-coated plate after phage biopanning. The protocol: Upon completion of the biopanning of Example 3, three 96-well plates of individual phage clones were isolated in order to perform periplasmic extract ELISA (PE-ELISA) on IL12Rb1 coated plates to identify positive VHH binders that selectively bound IL12Rb1. A 96-well plate was coated with IL12Rb1 and PBS under the same conditions. Next, wells were blocked at 37° ° C. for 1 h. Then, 100 μl of extracted antibodies was added to each well and incubated for 1 h. Subsequently, 100 μl of anti-tag polyclonal antibody conjugated to HRP was added to each well and incubated at 37 °C for 1 h. Plates were developed with TMB substrate. The reaction was stopped by the addition of H2SO4. Absorbance at 450 nm was read on a microtiter plate reader. Antibodies with absorbance of the antigen-coated well at least threefold greater than PBS-coated control are VHHs that specifically bind to IL12Rb1. Positive clones were sequenced, and sequences analyzed to identify unique clonotypes.
Take B1: the binding result is reported as “binds”.

Turning to B2, the binding result was “binds”.

In the case of B3, the binding result is “binds”.

As to B4, the binding result was “binds”.

For B5, the binding result was “binds”.

Consider B6, for which the binding result is “binds”.

On to B7, for which the binding result is reported as “binds”.

Take B8: the binding result is listed as “binds”.

Turning to B9, the binding result was “binds”.

In the case of B10, the binding result is “binds”.
